Source: article PMC4620370 (Journal of Gynecologic Oncology, 2015)
Each block holds one substance with its values, some of them ahead of it. No end group written: not given here. *: point of attachment. FITC = O=C1OC2(c3ccc(O)cc3Oc3cc(O)ccc32)c2ccc(NC(=S)*)cc21; Ahx = NCCCCCC(=O)O

Key:
[1] = test system: rhVEGFR-3; test: Phage screening; assay type: binding, human; conditions: negative peptide used as immunofluorescence control
[2] = test system: SKOV3 ovarian cancer cells (tumor-bearing mice); test: In vivo targeting of 99mTc-labeled peptide to ovarian tumors; set-up: species or system Balb/c-nu mice; conditions: ~3,700 kBq ^99mTc/100 µg peptide, n=6
[3] = cited from earlier work
[4] = test system: VEGFR-3 in ovarian carcinoma tissue sections; set-up: species or system human; conditions: FITC-tagged peptide, overnight at 4℃, confocal laser scanning fluorescence microscopy; Fig. 5B, D

- binding in the phage screening procedure [1]: negative binding
Substance: {FITC-Ahx}-WHNSLKANYTWG [FITC-labeled negative peptide]

Substance: NHS-MAG3-SHSWHWLPNLRHYAS [^99mTc-labeled peptide]
- time of peak radioactivity from ovarian tumor cells after tail vein injection [2]: 3 h

Substance: bevacizumab: a monoclonal antibody specific for VEGF
- serious adverse events associated [3]: venous thromboembolism, hypertension, proteinuria, arterial thrombosis, bleeding, and gastrointestinal perforation
- risk of fatal adverse events ([3]; meta-analysis that included 34 trials): increased

Substance: FITC-(aminohexanoic, AHX)-WHWLPNLRHYAS [FITC-tagged peptide III]
- interaction with VEGFR-3 (immunofluorescence) [4]: could interact with VEGFR-3
